Experimental data published in article PMC3644091.

Target: IP39, 39-kDa integral membrane protein of Euglena gracilis (Euglena gracilis)
Test: cryo-EM structure

stoichiometry N: 3
Substance: IP39, 39-kDa integral membrane protein of Euglena gracilis (natural protein)
